Results reported in patent US20240383990A1 (DIAGONAL THERAPEUTICS, published 2024).
Where two headings read alike, the source gives them in different places. One block for each binder: values may come before it.

Tests used:
Assay in all cases: cell-based or functional assay
[1] = biological target: T1, ALK1 / BMPRII receptor pair (BMPR Type I receptor ALK1 and BMPR Type II receptor BMPRII) on cells (UniProt P37023 22-503; Q13873 27-1038, limits assumed)
[2] = biological target: T1, ALK1 / BMPRII receptor pair (BMPR Type …); remark: listed apart in the source
[3] = biological target: T1, ALK1 / BMPRII receptor pair (BMPR Type …); remark: listed apart in the source
[4] = biological target: T2, IL-18 receptor (IL-18Rα and IL-18Rβ) on HEK-Blue IL-18 cells (UniProt Q13478 19-541; O95256 20-599, limits assumed)
T2 sequence (looked up) 1: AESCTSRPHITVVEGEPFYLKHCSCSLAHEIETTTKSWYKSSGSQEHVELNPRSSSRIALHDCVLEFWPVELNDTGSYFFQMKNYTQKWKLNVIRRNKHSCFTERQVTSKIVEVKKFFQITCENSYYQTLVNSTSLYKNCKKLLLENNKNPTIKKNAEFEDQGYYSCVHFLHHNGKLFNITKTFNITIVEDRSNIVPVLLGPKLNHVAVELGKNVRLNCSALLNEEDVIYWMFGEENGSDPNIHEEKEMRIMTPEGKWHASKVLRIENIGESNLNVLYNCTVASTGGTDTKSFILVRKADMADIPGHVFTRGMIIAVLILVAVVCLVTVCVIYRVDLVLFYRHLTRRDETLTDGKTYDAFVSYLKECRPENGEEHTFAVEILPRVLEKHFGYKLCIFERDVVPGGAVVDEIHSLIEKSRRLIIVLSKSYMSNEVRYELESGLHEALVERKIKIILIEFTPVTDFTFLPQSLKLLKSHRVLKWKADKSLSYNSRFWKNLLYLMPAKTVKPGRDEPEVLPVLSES
T2 sequence (looked up) 2: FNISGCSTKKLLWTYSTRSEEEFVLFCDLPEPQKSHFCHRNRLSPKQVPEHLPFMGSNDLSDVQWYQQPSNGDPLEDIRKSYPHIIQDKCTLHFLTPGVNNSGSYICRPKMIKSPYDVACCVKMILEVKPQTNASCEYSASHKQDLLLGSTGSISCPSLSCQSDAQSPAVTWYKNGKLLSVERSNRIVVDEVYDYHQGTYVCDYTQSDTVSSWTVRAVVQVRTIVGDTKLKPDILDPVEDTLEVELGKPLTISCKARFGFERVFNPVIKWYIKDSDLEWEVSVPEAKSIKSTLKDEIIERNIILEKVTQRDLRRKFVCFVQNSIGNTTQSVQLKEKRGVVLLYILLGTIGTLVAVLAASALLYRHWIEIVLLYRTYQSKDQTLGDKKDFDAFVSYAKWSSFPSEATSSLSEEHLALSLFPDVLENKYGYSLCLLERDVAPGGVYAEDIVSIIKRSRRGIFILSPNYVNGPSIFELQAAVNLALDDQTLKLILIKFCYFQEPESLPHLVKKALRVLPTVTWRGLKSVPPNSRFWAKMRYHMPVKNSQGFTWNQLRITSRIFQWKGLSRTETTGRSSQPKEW

T1 sequence (P37023 22-503 limits assumed, chain 1 of 2): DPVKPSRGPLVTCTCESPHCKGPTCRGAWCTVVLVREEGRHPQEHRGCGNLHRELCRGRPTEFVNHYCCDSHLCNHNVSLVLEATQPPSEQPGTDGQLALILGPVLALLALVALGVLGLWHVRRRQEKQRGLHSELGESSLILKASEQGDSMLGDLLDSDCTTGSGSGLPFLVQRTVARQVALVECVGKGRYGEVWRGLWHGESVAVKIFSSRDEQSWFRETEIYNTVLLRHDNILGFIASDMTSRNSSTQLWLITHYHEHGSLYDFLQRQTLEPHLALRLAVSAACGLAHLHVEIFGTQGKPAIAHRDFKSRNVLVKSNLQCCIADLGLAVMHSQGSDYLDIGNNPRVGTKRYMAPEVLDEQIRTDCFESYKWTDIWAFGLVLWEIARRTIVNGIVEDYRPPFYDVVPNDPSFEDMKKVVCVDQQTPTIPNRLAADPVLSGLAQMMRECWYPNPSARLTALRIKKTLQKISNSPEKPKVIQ
T1 sequence (Q13873 27-1038 limits assumed, chain 2 of 2): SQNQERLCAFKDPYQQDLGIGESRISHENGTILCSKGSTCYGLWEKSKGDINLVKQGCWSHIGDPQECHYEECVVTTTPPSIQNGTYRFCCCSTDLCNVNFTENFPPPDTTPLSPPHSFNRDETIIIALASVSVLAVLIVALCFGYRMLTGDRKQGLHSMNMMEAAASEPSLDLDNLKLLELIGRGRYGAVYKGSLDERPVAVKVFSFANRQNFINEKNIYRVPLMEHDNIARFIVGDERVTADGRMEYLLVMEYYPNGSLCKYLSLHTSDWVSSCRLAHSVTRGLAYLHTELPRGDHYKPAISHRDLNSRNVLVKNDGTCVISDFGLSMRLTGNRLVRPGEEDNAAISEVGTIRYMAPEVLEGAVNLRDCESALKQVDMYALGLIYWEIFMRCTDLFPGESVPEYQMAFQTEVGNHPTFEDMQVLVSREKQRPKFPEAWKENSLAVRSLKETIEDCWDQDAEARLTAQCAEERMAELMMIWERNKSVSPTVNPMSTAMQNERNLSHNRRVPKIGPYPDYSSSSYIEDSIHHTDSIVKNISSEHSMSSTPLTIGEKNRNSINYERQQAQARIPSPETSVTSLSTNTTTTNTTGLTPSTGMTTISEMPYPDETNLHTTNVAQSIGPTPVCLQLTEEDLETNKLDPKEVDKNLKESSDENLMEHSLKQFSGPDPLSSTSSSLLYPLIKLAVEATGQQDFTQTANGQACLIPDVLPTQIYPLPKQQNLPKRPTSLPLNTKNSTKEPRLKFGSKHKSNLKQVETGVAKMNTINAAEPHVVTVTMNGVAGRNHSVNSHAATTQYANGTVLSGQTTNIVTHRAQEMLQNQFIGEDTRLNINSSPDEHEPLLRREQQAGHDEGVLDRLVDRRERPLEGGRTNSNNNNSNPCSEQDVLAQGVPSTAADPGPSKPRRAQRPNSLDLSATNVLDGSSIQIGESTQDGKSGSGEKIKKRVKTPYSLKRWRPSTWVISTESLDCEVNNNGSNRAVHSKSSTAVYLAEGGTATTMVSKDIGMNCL

B2: DGL288 (bispecific antibody)
chain: EVQLLESGGGLVQPGGSLRLSCAASGFTFSDYYMTWIRQAPGKGLEWVSSISGGSTYYADSRKGRFTISRDNSENTLYLQMNSLRAEDTAVYYCARDFGVAGWFGQYGMDVWGQGTLVTVSSGGGGSGGGGSGGGGSQSVLTQPPSASGTPGQRVTISCTGSSSNIGAGYDVHWYQQLPGTAPKLLIYRSNQRPSGVPDRFSGSKSGTSASLAISGLRSEDEADYYCSSYAGNYNLVFGGGTKLTVLDKGPSVFPLAPEPKSSEVQLLESGGGLVQPGGSLRLSCAASGFTFSSYAMSWVRQAPGKGLEWVANINQDGSEKNYVDSMRGRFTISRDNSKNTLYLQMNSLRAEDTAVYYCAREFDYWGQGTLVTVTSSGGGGSGGGGSGGGGSQSVLAQPPSASGTPGQRVTISCSGSSSNIGSNYVYWYQQLPGTAPKLLIYGNNKRPSGVPDRFSGSKSGTSASLAISGLRSEDEADYYCAAWDDSLNGRVFGGGTKLTVLDKTHTCPPCPAPEAAGAPSVFLFPPKPKDTLMISRTPEVTCVVVDVSHEDPEVKFNWYVDGVEVHNAKTKPREEQYNSTYRVVSVLTVLHQDWLNGKEYKCKVSNKALPAPIEKTISKAKGQPREPQVYTLPPSRDELTKNQVSLTCLVKGFYPSDIAVEWESNGQPENNYKTTPPVLDSDGSFFLYSKLTVDKSRWQQGNVFSCSVMHEALHNHYTQKSLSLSPG
Agonist activity, % Emax BMP9 [1]: 76 % Emax BMP9 | Agonist activity, EC50 [1]: 0.07 nM | Agonist activity, EMAX (RLU) [1]: 2e+06 RLU | pSMAD1 ELISA in HUVEC, RLU 15 minutes, at 0 nM (baseline) [3]: 4.5 RLU | pSMAD1 ELISA in HUVEC, RLU 15 minutes, at 0.4 nM [3]: 4.9 RLU | pSMAD1 ELISA in HUVEC, RLU 15 minutes, at 2 nM [3]: 6.5 RLU | pSMAD1 ELISA in HUVEC, RLU 15 minutes, at 10 nM [3]: 6.7 RLU | pSMAD1 ELISA in HUVEC, RLU 60 minutes, at 0 nM (baseline) [3]: 4.5 RLU | pSMAD1 ELISA in HUVEC, RLU 60 minutes, at 0.4 nM [3]: 35 RLU | pSMAD1 ELISA in HUVEC, RLU 60 minutes, at 2 nM [3]: 26.9 RLU | pSMAD1 ELISA in HUVEC, RLU 60 minutes, at 10 nM [3]: 22.7 RLU | Agonist activity, % Emax BMP9 [2]: 76 % Emax BMP9 | Agonist activity, EC50 [2]: 0.07 nM | Agonist activity, EMAX (RLU) [2]: 2e+06 RLU

B3: PRO003 (bispecific antibody)
chain: EVQLLESGGGLVQPGGSLRLSCAASGFTFSIYAMSWVRQAPGKGLEWVSAISGSGGSTYYADSVKGRFTISRDNSKNTLYLQMNSLRAEDTAVYYCARDFDYWGQGTLVTVTSSGGGGSGGGGSGGGGSQSVLTQPPSASGTPGQRVTISCSGSSSNIGSNYVYWYQQLPGTAPKLLIYGNINRPSGVPDRFSGSKSGTSASLAISGLRSEDEADYYCAAWDDSLNGRVFGGGTKLTVLDKTHTCPPCPAPEAAGAPSVFLFPPKPKDTLMISRTPEVTCVVVDVSHEDPEVKFNWYVDGVEVHNAKTKPREEQYNSTYRVVSVLTVLHQDWLNGKEYKCKVSNKALPAPIEKTISKAKGQPREPQVYTLPPSRDELTKNQVSLTCLVKGFYPSDIAVEWESNGQPENNYKTTPPVLDSDGSFFLYSKLTVDKSRWQQGNVFSCSVMHEALHNHYTQKSLSLSPGGGGGSGGGGSEVQLLESGGGLVQPGGSLRLSCAASGFTFSNAWMNWVRQAPGKGLEWVSSISSSSSYIYYADSVKGRFTISRDNSKNTLYLQMNSLRAEDTAVYYCARAVAAGGMFWGLDQWGQGTLVTVTSSGGGGSGGGGSGGGGSQSVLTQPPSASGTPGQRVTISCSGSRSNIGSNSVHWYQQLPGTAPKLLIYGNSNRPSGVPDRFSGSKSGTSASLAISGLRSEDEADYYCQSYDSSLNDHVVFGGGTKLTVL
Agonist activity, % Emax BMP9 [1]: 47 % Emax BMP9 | Agonist activity, EC50 [1]: 0.1 nM | Agonist activity, EMAX (RLU) [1]: 1.25e+06 RLU | Agonist activity, % Emax BMP9 [2]: 47 % Emax BMP9 | Agonist activity, EC50 [2]: 0.1 nM | Agonist activity, EMAX (RLU) [2]: 1.25e+06 RLU

B4: DGL208 (bispecific antibody)
chain 1: QVQLVESGGGLVQAGGSLRLSCAASGRTFSKHAMGWFRQAPGKEREFVAAIDWSGGSTYYADSVKGRFTISRDNAKNTVYLQMDSLKPEDTAVYYCAADSYTDYAQLWLPELESEYDYWGQGTLVTVSSPLAPDKTHTCPPCPAPEAAGAPSVFLFPPKPKDTLMISRTPEVTCVVVDVSHEDPEVKFNWYVDGVEVHNAKTKPREEQYNSTYRVVSVLTVLHQDWLNGKEYKCKVSNKALPAPIEKTISKAKGQPREPQVCTLPPSRDELTKNQVSLSCAVKGFYPSDIAVEWESNGQPENNYKTTPPVLDSDGSFFLVSKLTVDKSRWQQGNVFSCSVMHEALHNHYTQKSLSLSPGWSHPQFEK
chain 2: not shown
HEK-Blue assay, % human IL-18 [4]: 44 % of human IL18 activity

B6: PRO004 (bispecific antibody)
chain: EVQLLESGGGLVQPGGSLRLSCAASGFTFSNAWMNWVRQAPGKGLEWVSSISSSSSYIYYADSVKGRFTISRDNSKNTLYLQMNSLRAEDTAVYYCARAVAAGGMFWGLDQWGQGTLVTVTSSGGGGSGGGGSGGGGSQSVLTQPPSASGTPGQRVTISCSGSRSNIGSNSVHWYQQLPGTAPKLLIYGNSNRPSGVPDRFSGSKSGTSASLAISGLRSEDEADYYCQSYDSSLNDHVVFGGGTKLTVLDKTHTCPPCPAPEAAGAPSVFLFPPKPKDTLMISRTPEVTCVVVDVSHEDPEVKFNWYVDGVEVHNAKTKPREEQYNSTYRVVSVLTVLHQDWLNGKEYKCKVSNKALPAPIEKTISKAKGQPREPQVYTLPPSRDELTKNQVSLTCLVKGFYPSDIAVEWESNGQPENNYKTTPPVLDSDGSFFLYSKLTVDKSRWQQGNVFSCSVMHEALHNHYTQKSLSLSPGGGGGSGGGGSEVQLLESGGGLVQPGGSLRLSCAASGFTFSIYAMSWVRQAPGKGLEWVSAISGSGGSTYYADSVKGRFTISRDNSKNTLYLQMNSLRAEDTAVYYCARDFDYWGQGTLVTVTSSGGGGSGGGGSGGGGSQSVLTQPPSASGTPGQRVTISCSGSSSNIGSNYVYWYQQLPGTAPKLLIYGNINRPSGVPDRFSGSKSGTSASLAISGLRSEDEADYYCAAWDDSLNGRVFGGGTKLTVL
Agonist activity, % Emax BMP9 [1]: 46 % Emax BMP9 | Agonist activity, EC50 [1]: 0.5 nM | Agonist activity, EMAX (RLU) [1]: 1.21e+06 RLU | Agonist activity, % Emax BMP9 [2]: 46 % Emax BMP9 | Agonist activity, EC50 [2]: 0.5 nM | Agonist activity, EMAX (RLU) [2]: 1.21e+06 RLU

Second part, the binder after the results:

Agonist activity, % Emax BMP9 [1]: 35 % Emax BMP9 | Agonist activity, EC50 [1]: 0.075 nM | Agonist activity, EMAX (RLU) [1]: 931000 RLU | Agonist activity, % Emax BMP9 [2]: 35 % Emax BMP9 | Agonist activity, EC50 [2]: 0.075 nM | Agonist activity, EMAX (RLU) [2]: 931000 RLU
B1: PRO005 (bispecific antibody)
chain: EVQLLESGGGLVQPGGSLRLSCAASGFTFSSYAMSWVRQAPGKGLEWVANINQDGSEKNYVDSMRGRFTISRDNSKNTLYLQMNSLRAEDTAVYYCAREFDYWGQGTLVTVTSSGGGGSGGGGSGGGGSQSVLAQPPSASGTPGQRVTISCSGSSSNIGSNYVYWYQQLPGTAPKLLIYGNNKRPSGVPDRFSGSKSGTSASLAISGLRSEDEADYYCAAWDDSLNGRVFGGGTKLTVLDKTHTCPPCPAPEAAGAPSVFLFPPKPKDTLMISRTPEVTCVVVDVSHEDPEVKFNWYVDGVEVHNAKTKPREEQYNSTYRVVSVLTVLHQDWLNGKEYKCKVSNKALPAPIEKTISKAKGQPREPQVYTLPPSRDELTKNQVSLTCLVKGFYPSDIAVEWESNGQPENNYKTTPPVLDSDGSFFLYSKLTVDKSRWQQGNVFSCSVMHEALHNHYTQKSLSLSPGGGGGSGGGGSEVQLLESGGGLVQPGGSLRLSCAASGFTFSDYYMTWIRQAPGKGLEWVSSISGGSTYYADSRKGRFTISRDNSENTLYLQMNSLRAEDTAVYYCARDFGVAGWFGQYGMDVWGQGTLVTVSSGGGGSGGGGSGGGGSQSVLTQPPSASGTPGQRVTISCTGSSSNIGAGYDVHWYQQLPGTAPKLLIYRSNQRPSGVPDRFSGSKSGTSASLAISGLRSEDEADYYCSSYAGNYNLVFGGGTKLTVL

Agonist activity, % Emax BMP9 [1]: 35 % Emax BMP9 | Agonist activity, EC50 [1]: 0.1 nM | Agonist activity, EMAX (RLU) [1]: 929000 RLU | Agonist activity, % Emax BMP9 [2]: 35 % Emax BMP9 | Agonist activity, EC50 [2]: 0.1 nM | Agonist activity, EMAX (RLU) [2]: 929000 RLU
B5: PRO006 (bispecific antibody)
chain: EVQLLESGGGLVQPGGSLRLSCAASGFTFSDYYMTWIRQAPGKGLEWVSSISGGSTYYADSRKGRFTISRDNSENTLYLQMNSLRAEDTAVYYCARDFGVAGWFGQYGMDVWGQGTLVTVSSGGGGSGGGGSGGGGSQSVLTQPPSASGTPGQRVTISCTGSSSNIGAGYDVHWYQQLPGTAPKLLIYRSNQRPSGVPDRFSGSKSGTSASLAISGLRSEDEADYYCSSYAGNYNLVFGGGTKLTVLDKTHTCPPCPAPEAAGAPSVFLFPPKPKDTLMISRTPEVTCVVVDVSHEDPEVKFNWYVDGVEVHNAKTKPREEQYNSTYRVVSVLTVLHQDWLNGKEYKCKVSNKALPAPIEKTISKAKGQPREPQVYTLPPSRDELTKNQVSLTCLVKGFYPSDIAVEWESNGQPENNYKTTPPVLDSDGSFFLYSKLTVDKSRWQQGNVFSCSVMHEALHNHYTQKSLSLSPGGGGGSGGGGSEVQLLESGGGLVQPGGSLRLSCAASGFTFSSYAMSWVRQAPGKGLEWVANINQDGSEKNYVDSMRGRFTISRDNSKNTLYLQMNSLRAEDTAVYYCAREFDYWGQGTLVTVTSSGGGGSGGGGSGGGGSQSVLAQPPSASGTPGQRVTISCSGSSSNIGSNYVYWYQQLPGTAPKLLIYGNNKRPSGVPDRFSGSKSGTSASLAISGLRSEDEADYYCAAWDDSLNGRVFGGGTKLTVL
